The values below come from article PMC6256979, “Screening and Improvement of an Anti-VEGF DNA Aptamer”.

A word on the Kd: it is the free concentration of one partner at which half of the binding sites on the other are occupied at equilibrium, for simple one-to-one binding.

The target of one data set is VEGF-A121 (Homo sapiens (Human), UniProt P15692 27-147, none (E. coli)). Kind of data set: SPR; TBSE 10 mM Tris-HCl pH 7.0, 100 mM NaCl, 0.05 mM EDTA (folded with 50 mM KCl in Fig 3), 24 C; VEGF on CM5. The conditions noted are these: chain copies: 2.
Chain of VEGF-A121 (P15692 other isoform, or with tags, fused parts or gaps): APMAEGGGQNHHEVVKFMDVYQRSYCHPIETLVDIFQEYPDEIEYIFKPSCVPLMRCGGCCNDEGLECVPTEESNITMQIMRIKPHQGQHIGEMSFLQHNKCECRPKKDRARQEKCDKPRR
For another data set, the target named is VEGF-A165 (Homo sapiens (Human), UniProt P15692 27-191, N-glycosylated (Sf21)). Described as above. The settings on record: chain copies: 2.
Chain of VEGF-A165 (P15692 other isoform, or with tags, fused parts or gaps): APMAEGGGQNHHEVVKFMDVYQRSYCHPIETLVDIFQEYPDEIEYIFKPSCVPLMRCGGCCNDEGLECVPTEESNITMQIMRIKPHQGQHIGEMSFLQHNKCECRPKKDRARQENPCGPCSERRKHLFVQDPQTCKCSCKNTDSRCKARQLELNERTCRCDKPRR

B1: Vap7 (ssDNA)
DNA: ATACCAGTCTATTCAATTGCACTCTGTGGGGGTGGACGGGCCGGGTAGATAGTATGTGCAATCA
modifications: G-quadruplex
B1: the Kd with VEGF-A121 was 1 nM; with VEGF-A165 it was 20 nM.

B2: V7t1 (ssDNA)
DNA: TGTGGGGGTGGACGGGCCGGGTAGA
modifications: G-quadruplex
B2 returned a Kd with VEGF-A121 of 1.1 nM.
